Source: patent US20250090688A1 (BROAD INSTITUTE, published 2025)

Assays:
Assay in all cases: inhibition of transduction of human primary myotubes by virus pre-incubated with recombinant soluble integrin (affinity as inferred by the filing)
[1] = biological target: T1, recombinant soluble human integrin heterodimer αVβ6 (human, UniProt P06756 31-992; P18564 22-707)
T1 construct: Bought (R&D Systems); also called αVβ6 recombinant protein; αVb6

[2] = biological target: T2, recombinant soluble human integrin heterodimer αVβ8 (human, UniProt P06756 31-992; P26012 43-684)
T2 construct: Bought (R&D Systems); also called αVβ8 recombinant protein; αVb8

[3] = biological target: T3, recombinant soluble human integrin heterodimer αVβ1 (human, UniProt P06756 31-992; P05556 21-728)
T3 construct: Bought (R&D Systems); also called αVβ1 recombinant protein; αVb1

[4] = biological target: T4, recombinant soluble human integrin heterodimer αVβ3 (human, UniProt P06756 31-992; P05106 27-718)
T4 construct: Bought (R&D Systems); also called αVβ3 recombinant protein; αVb3

Measured: binding result

T4 sequence (P06756 31-992 limits assumed, chain 1 of 2): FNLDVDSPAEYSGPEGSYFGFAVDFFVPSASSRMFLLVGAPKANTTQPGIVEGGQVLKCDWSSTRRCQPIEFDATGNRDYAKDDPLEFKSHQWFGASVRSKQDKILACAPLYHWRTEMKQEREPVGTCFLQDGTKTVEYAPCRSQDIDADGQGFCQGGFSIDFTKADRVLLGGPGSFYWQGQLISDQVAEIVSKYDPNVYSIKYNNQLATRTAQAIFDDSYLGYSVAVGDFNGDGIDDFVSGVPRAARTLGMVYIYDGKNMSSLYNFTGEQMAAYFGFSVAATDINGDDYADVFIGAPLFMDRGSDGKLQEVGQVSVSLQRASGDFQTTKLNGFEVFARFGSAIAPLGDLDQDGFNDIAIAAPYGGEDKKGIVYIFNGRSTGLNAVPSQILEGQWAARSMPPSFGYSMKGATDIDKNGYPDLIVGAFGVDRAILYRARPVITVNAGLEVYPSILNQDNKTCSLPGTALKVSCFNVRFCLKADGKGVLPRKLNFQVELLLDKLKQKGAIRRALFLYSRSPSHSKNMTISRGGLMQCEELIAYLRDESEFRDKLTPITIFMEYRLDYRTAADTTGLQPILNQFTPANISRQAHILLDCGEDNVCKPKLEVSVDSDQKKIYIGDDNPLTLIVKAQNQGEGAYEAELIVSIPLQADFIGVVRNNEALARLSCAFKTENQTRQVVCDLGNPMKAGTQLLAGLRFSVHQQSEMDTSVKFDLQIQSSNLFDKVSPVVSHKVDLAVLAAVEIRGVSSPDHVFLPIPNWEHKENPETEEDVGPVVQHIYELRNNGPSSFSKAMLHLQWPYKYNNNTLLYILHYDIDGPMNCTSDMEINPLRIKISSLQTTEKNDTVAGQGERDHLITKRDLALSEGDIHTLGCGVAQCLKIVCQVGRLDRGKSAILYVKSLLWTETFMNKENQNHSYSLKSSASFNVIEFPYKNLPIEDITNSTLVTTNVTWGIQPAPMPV
T4 sequence (P05106 27-718 limits assumed, chain 2 of 2): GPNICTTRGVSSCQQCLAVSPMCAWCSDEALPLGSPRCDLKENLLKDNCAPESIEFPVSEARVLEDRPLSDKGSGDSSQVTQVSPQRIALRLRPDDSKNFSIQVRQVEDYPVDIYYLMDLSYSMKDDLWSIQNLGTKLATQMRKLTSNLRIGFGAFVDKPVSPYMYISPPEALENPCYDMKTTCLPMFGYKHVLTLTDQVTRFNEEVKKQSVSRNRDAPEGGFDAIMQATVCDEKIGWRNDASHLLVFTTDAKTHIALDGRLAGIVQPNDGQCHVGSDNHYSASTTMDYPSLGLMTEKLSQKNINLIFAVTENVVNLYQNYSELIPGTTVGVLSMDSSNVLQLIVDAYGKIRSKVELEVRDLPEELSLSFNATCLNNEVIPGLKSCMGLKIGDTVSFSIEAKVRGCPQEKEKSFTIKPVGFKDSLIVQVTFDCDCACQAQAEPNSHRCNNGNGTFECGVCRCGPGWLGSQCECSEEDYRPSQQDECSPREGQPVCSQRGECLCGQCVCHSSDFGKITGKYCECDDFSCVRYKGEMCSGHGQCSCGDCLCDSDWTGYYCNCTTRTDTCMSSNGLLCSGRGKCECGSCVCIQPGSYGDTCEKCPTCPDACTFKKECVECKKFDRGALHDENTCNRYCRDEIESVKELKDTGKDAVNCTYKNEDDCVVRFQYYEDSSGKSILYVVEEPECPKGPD
T1 sequence (P06756 31-992 limits assumed, chain 1 of 2): as the sequence (P06756 31-992 limits assumed, chain 1 of 2) above
T1 sequence (P18564 22-707 limits assumed, chain 2 of 2): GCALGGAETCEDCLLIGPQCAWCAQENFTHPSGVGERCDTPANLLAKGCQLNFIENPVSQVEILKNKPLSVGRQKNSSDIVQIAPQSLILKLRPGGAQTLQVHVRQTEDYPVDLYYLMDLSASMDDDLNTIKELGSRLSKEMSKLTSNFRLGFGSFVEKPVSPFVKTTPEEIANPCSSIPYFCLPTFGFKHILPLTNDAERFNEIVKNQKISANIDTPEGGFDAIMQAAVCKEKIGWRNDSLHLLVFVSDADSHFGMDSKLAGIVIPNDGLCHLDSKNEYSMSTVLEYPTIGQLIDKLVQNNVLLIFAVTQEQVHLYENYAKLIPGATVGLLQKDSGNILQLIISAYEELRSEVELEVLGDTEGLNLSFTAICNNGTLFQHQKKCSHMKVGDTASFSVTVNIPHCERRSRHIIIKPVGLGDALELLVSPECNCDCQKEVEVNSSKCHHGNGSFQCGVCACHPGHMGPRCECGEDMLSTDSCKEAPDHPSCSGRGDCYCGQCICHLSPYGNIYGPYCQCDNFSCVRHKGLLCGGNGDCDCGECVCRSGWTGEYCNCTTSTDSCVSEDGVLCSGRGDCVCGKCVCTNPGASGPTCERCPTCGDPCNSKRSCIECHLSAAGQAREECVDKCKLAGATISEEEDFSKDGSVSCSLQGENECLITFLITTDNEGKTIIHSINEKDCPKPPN
T2 sequence (P06756 31-992 limits assumed, chain 1 of 2): as the sequence (P06756 31-992 limits assumed, chain 1 of 2) above
T2 sequence (P26012 43-684 limits assumed, chain 2 of 2): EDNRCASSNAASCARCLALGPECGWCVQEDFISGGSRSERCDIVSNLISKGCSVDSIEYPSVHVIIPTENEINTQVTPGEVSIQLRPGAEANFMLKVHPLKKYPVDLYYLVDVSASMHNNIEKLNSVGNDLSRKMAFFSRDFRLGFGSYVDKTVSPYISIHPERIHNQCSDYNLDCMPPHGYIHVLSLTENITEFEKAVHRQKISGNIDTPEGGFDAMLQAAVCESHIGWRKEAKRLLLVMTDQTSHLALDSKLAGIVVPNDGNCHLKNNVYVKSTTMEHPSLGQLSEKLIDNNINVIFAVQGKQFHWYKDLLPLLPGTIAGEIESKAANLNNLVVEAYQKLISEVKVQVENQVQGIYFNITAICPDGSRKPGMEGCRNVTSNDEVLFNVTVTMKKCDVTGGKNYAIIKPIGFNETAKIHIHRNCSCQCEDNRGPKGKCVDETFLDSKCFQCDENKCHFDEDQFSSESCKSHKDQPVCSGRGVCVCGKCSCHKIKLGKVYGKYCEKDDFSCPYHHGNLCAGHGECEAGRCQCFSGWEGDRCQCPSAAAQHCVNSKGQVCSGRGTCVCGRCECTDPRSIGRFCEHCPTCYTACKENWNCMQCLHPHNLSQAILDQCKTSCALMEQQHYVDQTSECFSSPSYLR
T3 sequence (P06756 31-992 limits assumed, chain 1 of 2): as the sequence (P06756 31-992 limits assumed, chain 1 of 2) above
T3 sequence (P05556 21-728 limits assumed, chain 2 of 2): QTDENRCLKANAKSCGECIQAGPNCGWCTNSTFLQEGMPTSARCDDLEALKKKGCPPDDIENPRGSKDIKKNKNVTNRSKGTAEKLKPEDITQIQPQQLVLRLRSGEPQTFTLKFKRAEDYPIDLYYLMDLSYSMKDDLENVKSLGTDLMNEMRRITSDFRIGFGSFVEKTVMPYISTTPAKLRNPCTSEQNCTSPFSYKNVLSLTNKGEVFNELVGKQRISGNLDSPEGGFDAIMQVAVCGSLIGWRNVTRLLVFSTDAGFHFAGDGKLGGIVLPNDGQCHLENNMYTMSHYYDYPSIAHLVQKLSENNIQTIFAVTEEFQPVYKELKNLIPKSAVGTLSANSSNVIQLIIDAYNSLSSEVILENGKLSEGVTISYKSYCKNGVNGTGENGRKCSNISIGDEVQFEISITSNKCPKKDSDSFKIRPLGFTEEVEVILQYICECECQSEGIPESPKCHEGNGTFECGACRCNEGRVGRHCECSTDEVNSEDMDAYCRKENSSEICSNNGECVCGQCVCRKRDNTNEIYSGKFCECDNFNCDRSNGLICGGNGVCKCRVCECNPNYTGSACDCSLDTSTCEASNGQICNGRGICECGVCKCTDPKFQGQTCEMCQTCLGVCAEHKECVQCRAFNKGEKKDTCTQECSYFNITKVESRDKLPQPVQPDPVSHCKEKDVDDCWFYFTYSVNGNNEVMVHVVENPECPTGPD

B1: MyoAAV 2A (other)
chain: MAADGYLPDWLEDNLSEGIREWWALKPGAPQPKANQQHQDNARGLVLPGYKYLGPGNGLDKGEPVNAADAAALEHDKAYDQQLKAGDNPYLKYNHADAEFQERLKEDTSFGGNLGRAVFQAKKRLLEPLGLVEEAAKTAPGKKRPVEQSPQEPDSSAGIGKSGAQPAKKRLNFGQTGDTESVPDPQPIGEPPAAPSGVGSLTMASGGGAPVADNNEGADGVGSSSGNWHCDSQWLGDRVITTSTRTWALPTYNNHLYKQISNSTSGGSSNDNAYFGYSTPWGYFDFNRFHCHFSPRDWQRLINNNWGFRPKRLNFKLFNIQVKEVTDNNGVKTIANNLTSTVQVFTDSDYQLPYVLGSAHEGCLPPFPADVFMIPQYGYLTLNDGSQAVGRSSFYCLEYFPSQMLRTGNNFQFSYEFENVPFHSSYAHSQSLDRLMNPLIDQYLYYLSKTINGSGQNQQTLKFSVAGPSNMAVQGRNYIPGPSYRQQRVSTTVTQNNNSEFAWPGASSWALNGRNSLMNPGPAMASHKEGEDRFFPLSGSLIFGKQGTGRDNVDADKVMITNEEEIKTTNPVATESYGQVATNHQGPGRGDQTTLAQAQTGWVQNQGILPGMVWQDRDVYLQGPIWAKIPHTDGNFHPSPLMGGFGMKHPPPQILIKNTPVPADPPTAFNKDKLNSFITQYSTGQVSVEIEWELQKENSKRWNPEIQYTSNYYKSNNVEFAVNTEGVYSEPRPIGTRYLTRNL
notes: Recombinant AAV particle; also called EMyoAAV; enhanced MyoAAV
binds: all assays above
